# B1: peptide HD2 (from tick evasin EVA4) / CCL4 (biotinylated, synthetic) (parent complex)
# chain 1: EEDDYTAYAPLTCYFT
# chain 2: APMGSDPPTACCFSYTARKLPRNFVVDYYETSSLCSQPAVVFQTKRSKQVCADPSESWVQEYVYDLELN
# Variants of: B1
row,Variant,enrichment
1,chain 1 EEDDYTAYAPLPCYFT [chain 1 T12P],0.2 log2 (difference from the parental peptide)
2,chain 1 EEDDYTAYAPKTCYFT [chain 1 L11K],1.88 log2 (difference from the parental peptide)
3,chain 1 EEDDYTAYAPATCYFT [chain 1 L11A],0.289 log2 (difference from the parental peptide)
4,chain 1 EEDDYTAYAPDTCYFT [chain 1 L11D],-7.07 log2 (difference from the parental peptide)
5,chain 1 EEDDYTAYAPRTCYFT [chain 1 L11R],1.19 log2 (difference from the parental peptide)
6,chain 1 EEDDYTAYAPWTCYFT [chain 1 L11W],-0.0529 log2 (difference from the parental peptide)
7,chain 1 EEDDYTAYAPCTCYFT [chain 1 L11C],0.222 log2 (difference from the parental peptide)
8,chain 1 EEDDYTAYAPLTCCFT [chain 1 Y14C],-4.56 log2 (difference from the parental peptide)
9,chain 1 EEDDYTAYAPLTCVFT [chain 1 Y14V],-1.84 log2 (difference from the parental peptide)
10,chain 1 EEDDYTAYAPLTCLFT [chain 1 Y14L],-2.84 log2 (difference from the parental peptide)
11,chain 1 EEDDYTAYAPLTCFFT [chain 1 Y14F],0.581 log2 (difference from the parental peptide)
12,chain 1 EEDDYTAYAPLTCHFT [chain 1 Y14H],-0.0476 log2 (difference from the parental peptide)
13,chain 1 EEDDYTAYAPLTCWFT [chain 1 Y14W],-0.462 log2 (difference from the parental peptide)
14,chain 1 EEDDYTAYAPLTCKFT [chain 1 Y14K],-5.73 log2 (difference from the parental peptide)
15,chain 1 EEDDYTAYAPLTCMFT [chain 1 Y14M],-2.24 log2 (difference from the parental peptide)
16,chain 1 NEDDYTAYAPLTCYFT [chain 1 E1N],-0.413 log2 (difference from the parental peptide)
17,chain 1 WEDDYTAYAPLTCYFT [chain 1 E1W],-3.15 log2 (difference from the parental peptide)
18,chain 1 MEDDYTAYAPLTCYFT [chain 1 E1M],-0.205 log2 (difference from the parental peptide)
19,chain 1 HEDDYTAYAPLTCYFT [chain 1 E1H],-1.57 log2 (difference from the parental peptide)

row,Variant,enrichment
1,chain 1 SEDDYTAYAPLTCYFT [chain 1 E1S],-0.537 log2 (difference from the parental peptide)
2,chain 1 IEDDYTAYAPLTCYFT [chain 1 E1I],-0.889 log2 (difference from the parental peptide)
3,chain 1 GEDDYTAYAPLTCYFT [chain 1 E1G],-0.0396 log2 (difference from the parental peptide)
4,chain 1 FEDDYTAYAPLTCYFT [chain 1 E1F],-2.68 log2 (difference from the parental peptide)
5,chain 1 DEDDYTAYAPLTCYFT [chain 1 E1D],1.99 log2 (difference from the parental peptide)
6,chain 1 VEDDYTAYAPLTCYFT [chain 1 E1V],-1.21 log2 (difference from the parental peptide)
7,chain 1 KEDDYTAYAPLTCYFT [chain 1 E1K],-2.64 log2 (difference from the parental peptide)
8,chain 1 REDDYTAYAPLTCYFT [chain 1 E1R],-3.09 log2 (difference from the parental peptide)
9,chain 1 EEDDYTAYAYLTCYFT [chain 1 P10Y],-7.13 log2 (difference from the parental peptide)
10,chain 1 EEDDYTAYAALTCYFT [chain 1 P10A],-7.28 log2 (difference from the parental peptide)
11,chain 1 EEDDYTAYASLTCYFT [chain 1 P10S],-7.76 log2 (difference from the parental peptide)
12,chain 1 EEDDYTAYAELTCYFT [chain 1 P10E],-4.88 log2 (difference from the parental peptide)
13,chain 1 EEDDYTAYACLTCYFT [chain 1 P10C],-7.71 log2 (difference from the parental peptide)
14,chain 1 EEDDYTAYAPLTCYFV [chain 1 T16V],-0.281 log2 (difference from the parental peptide)
15,chain 1 EEDDYTAYAPLTCYFN [chain 1 T16N],0.632 log2 (difference from the parental peptide)
16,chain 1 EEDDYTAYAPLTCYFG [chain 1 T16G],1.59 log2 (difference from the parental peptide)
17,chain 1 EEDDYTAYAPLTCYFI [chain 1 T16I],-0.308 log2 (difference from the parental peptide)
18,chain 1 EEDDYTAYAPLTCYFS [chain 1 T16S],1.17 log2 (difference from the parental peptide)
19,chain 1 EEDDYTAYAPLTDYFT [chain 1 C13D],-8.73 log2 (difference from the parental peptide)

row,Variant,enrichment
1,chain 1 EEDDYTAYAPLTFYFT [chain 1 C13F],-8.2 log2 (difference from the parental peptide)
2,chain 1 EEDDYTAYAPLTSYFT [chain 1 C13S],-4.84 log2 (difference from the parental peptide)
3,chain 1 EEDDYTAYAPLTWYFT [chain 1 C13W],-6.63 log2 (difference from the parental peptide)
4,chain 1 EEDDYTAYAPLTAYFT [chain 1 C13A],-7.87 log2 (difference from the parental peptide)
5,chain 1 EEDDYTAYAPLTIYFT [chain 1 C13I],-3.66 log2 (difference from the parental peptide)
6,chain 1 EEDDYTAYAPLTNYFT [chain 1 C13N],-7.77 log2 (difference from the parental peptide)
7,chain 1 EEDDYTAYAPLTGYFT [chain 1 C13G],-9 log2 (difference from the parental peptide)
8,chain 1 EEDDYTRYAPLTCYFT [chain 1 A7R],0.829 log2 (difference from the parental peptide)
9,chain 1 EEDDYTDYAPLTCYFT [chain 1 A7D],1.81 log2 (difference from the parental peptide)
10,chain 1 EEDDYTQYAPLTCYFT [chain 1 A7Q],2.27 log2 (difference from the parental peptide)
11,chain 1 EEDDYTSYAPLTCYFT [chain 1 A7S],1.01 log2 (difference from the parental peptide)
12,chain 1 EEDDYTHYAPLTCYFT [chain 1 A7H],-0.536 log2 (difference from the parental peptide)
13,chain 1 EEDDYTCYAPLTCYFT [chain 1 A7C],-7.41 log2 (difference from the parental peptide)
14,chain 1 EEDDYTFYAPLTCYFT [chain 1 A7F],-2.35 log2 (difference from the parental peptide)
15,chain 1 EEDDYTADAPLTCYFT [chain 1 Y8D],-2.3 log2 (difference from the parental peptide)
16,chain 1 EEDDYTAVAPLTCYFT [chain 1 Y8V],-2.68 log2 (difference from the parental peptide)
17,chain 1 EEDDYTANAPLTCYFT [chain 1 Y8N],-2.94 log2 (difference from the parental peptide)
18,chain 1 EEDDYTAPAPLTCYFT [chain 1 Y8P],-0.864 log2 (difference from the parental peptide)

# Source: PMC11969024 (2025)
